The values below come from patent US20230250148A1 (published 2023).

Assay [1] addresses T1, human insulin receptor (IR) on human IM-9 cells (human, UniProt P06213 28-1382).
T1 construct: whole, on cells; also called human IR
The experiment in a line: competition with biotinylated RHI on IM-9 cells, flow cytometry, 4 C. The protocol: (§1) 40 µL of an IM-9 cell suspension (8×10⁶ cells/mL) was then added to each well by multichannel pipette, mixed again gently and incubated on ice for 30 min to allow competitive binding on the IR on IM-9 cells. Cells were then washed twice with 275µL of ice-cold FACS wash buffer (HBSS/2mM EDTA/0.1% Na-azide + 0.5% horse serum) by centrifuging the V-bottom plate at 3000 rpm for 3 min and aspirating the supernatant. Cells were then resuspended in 40µL of FACS staining medium containing 1:100 diluted Streptavidin-PE (Life Technologies) for 20 min on ice. Cells were then washed once with 275 µL of ice-cold FACS buffer and finally fixed with 3% paraformaldehyde for 10 min at room temp. Cells were then washed once with 275 µL of ice-cold FACS buffer and resuspended in 250µl of FACS buffer for analysis.
(§2) The insulin-Fc fusion proteins were manufactured in HEK293 cells according to Example 1 and purified using a Protein A column according to Example 4. Their structures were confirmed according to Example 6 by non-reducing and reducing CE-SDS, and the sequences were further identified by LC-MS with glycan removal according to Example 8. Their %homodimer content was measured by size-exclusion chromatography according to Example 10, and their insulin receptor binding affinities were measured according to Example 12.
Background: A flow cytometer gives signals particle by particle.

Assay [2] deals with T1, human insulin receptor (IR) on human …. The description is as above. As for the experimental part:
as §1
The lack of in vivo potency for the insulin-Fc fusion protein of SEQ ID NO: 43 correlates with its high IC50 (shown in Table 9 below) as measured by the insulin receptor binding assay according to the method of Example 12.
This is another data set of the same source.

For assay [3] the target is unchanged. The description is as above. As for the experimental part: as §1, §2
This is another data set of the same source.

For assay [4] the target is unchanged. Described as above. The protocol:
as §1, §2
This is another data set of the same source.

For assay [5], the target named is T2, biotinylated recombinant human Fc(gamma)RI (human, UniProt P12314 16-288, biotinylated, site not stated).
T2 construct: Bought reagent; construct not described; also called rhFc(gamma)RI; Fc(gamma) receptor I
The experiment in a line: ELISA, fusion protein coated, biotinylated rhFc(gamma)RI at 3000 ng/mL. As for the experimental part:
(§3) The binding of insulin-Fc fusion proteins to the Fc(gamma)RI at pH 7.4 is conducted using an ELISA assay as follows using human Fc(gamma)RI (i.e., rhFc(gamma)RI). Insulin-Fc fusion proteins are diluted to 10 µg/mL in sodium bicarbonate buffer at pH 9.6 and coated on Maxisorp (Nunc) microtiter plates overnight at 4° C., after which the microplate strips are washed 5 times with PBST (PBS/0.05% Tween-20) buffer and blocked with Superblock blocking reagent (ThermoFisher). Serial dilutions of biotinylated rhFc(gamma)RI (recombinant human Fc(gamma)RI; R&D Systems) are prepared in PBST/10% Superblock buffer from 3000 ng/mL to 4.1 ng/mL and loaded at 100 µL/well onto the microplate strips coated with insulin-Fc fusion protein. The microtiter plate is incubated for 1 hour at room temperature after which time the microplate strips are washed 5 times with PBST and then loaded with 100 µL/well of streptavidin-HRP diluted 1:10000 in PBST/10% Superblock buffer. After incubating for 45 min, the microplate strips are washed again 5 times with PBST. TMB is added to reveal the bound Fc(gamma)RI proteins and is stopped with ELISA stop reagent (Boston Bioproducts). The plate is read in an ELISA plate reader at 450 nm, and the OD450 values (proportional to the binding of rhFc(gamma)RI to insulin-Fc protein) are plotted against log concentrations of rhFc(gamma)RI added to each well to generate binding curves using GraphPad Prism software. For groupings of compounds with somewhat similar curves, the OD450 at one of the higher concentrations, for instance at rhFc(gamma)RI concentrations of 3000 ng/mL, can be used to identify differences between coated insulin-Fc fusion protein compounds. […]
Finally, select compounds were tested for their likelihood to interact with the immune system by measuring their Fc(gamma) receptor binding activity according to the procedure of Example 15.

Assay [6] addresses T2, biotinylated recombinant human …. The experiment in a line: ELISA, fusion protein coated, biotinylated rhFc(gamma)RI in solution. The protocol: as §3

For orientation: IC50 means the concentration needed to halve the response being measured. The low end stands for greater potency, the high end for weaker potency.

Where a chain is given by its changes, count along the chain named. Where two headings read alike, the source gives them in different places.

T1 sequence (P06213 28-1382): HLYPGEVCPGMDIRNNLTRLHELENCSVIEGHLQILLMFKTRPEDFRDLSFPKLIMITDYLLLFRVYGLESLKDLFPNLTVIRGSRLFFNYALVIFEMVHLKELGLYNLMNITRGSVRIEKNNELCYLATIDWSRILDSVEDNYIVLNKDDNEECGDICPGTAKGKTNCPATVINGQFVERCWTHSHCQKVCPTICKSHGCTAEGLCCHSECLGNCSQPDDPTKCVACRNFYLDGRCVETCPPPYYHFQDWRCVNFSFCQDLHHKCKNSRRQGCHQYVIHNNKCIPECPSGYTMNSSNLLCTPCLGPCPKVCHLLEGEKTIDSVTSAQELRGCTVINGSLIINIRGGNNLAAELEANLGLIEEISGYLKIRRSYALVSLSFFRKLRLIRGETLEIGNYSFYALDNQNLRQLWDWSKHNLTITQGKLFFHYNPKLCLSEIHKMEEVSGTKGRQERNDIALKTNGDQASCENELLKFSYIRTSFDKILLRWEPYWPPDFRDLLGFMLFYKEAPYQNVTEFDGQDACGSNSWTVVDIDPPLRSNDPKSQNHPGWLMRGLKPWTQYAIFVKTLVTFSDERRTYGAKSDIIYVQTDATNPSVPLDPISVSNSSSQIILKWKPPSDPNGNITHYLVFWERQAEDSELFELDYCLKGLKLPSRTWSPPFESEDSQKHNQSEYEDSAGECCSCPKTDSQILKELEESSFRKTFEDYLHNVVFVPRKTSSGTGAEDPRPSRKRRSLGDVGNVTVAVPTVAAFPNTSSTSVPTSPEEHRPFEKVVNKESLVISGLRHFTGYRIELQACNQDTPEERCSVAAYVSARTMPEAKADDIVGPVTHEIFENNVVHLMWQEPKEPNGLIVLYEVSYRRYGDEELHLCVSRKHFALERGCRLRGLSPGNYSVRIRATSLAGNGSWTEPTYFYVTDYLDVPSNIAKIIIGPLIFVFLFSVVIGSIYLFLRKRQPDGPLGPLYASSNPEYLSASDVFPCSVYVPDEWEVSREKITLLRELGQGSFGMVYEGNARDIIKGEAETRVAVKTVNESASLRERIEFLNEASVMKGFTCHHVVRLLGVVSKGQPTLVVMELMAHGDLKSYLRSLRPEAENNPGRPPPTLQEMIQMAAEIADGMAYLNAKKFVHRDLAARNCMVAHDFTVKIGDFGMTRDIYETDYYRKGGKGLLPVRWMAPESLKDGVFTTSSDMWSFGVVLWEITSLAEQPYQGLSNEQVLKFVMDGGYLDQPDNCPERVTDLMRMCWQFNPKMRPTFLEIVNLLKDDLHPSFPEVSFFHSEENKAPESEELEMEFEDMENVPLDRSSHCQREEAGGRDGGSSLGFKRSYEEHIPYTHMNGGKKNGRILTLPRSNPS
T2 sequence (P12314 16-288 limits assumed): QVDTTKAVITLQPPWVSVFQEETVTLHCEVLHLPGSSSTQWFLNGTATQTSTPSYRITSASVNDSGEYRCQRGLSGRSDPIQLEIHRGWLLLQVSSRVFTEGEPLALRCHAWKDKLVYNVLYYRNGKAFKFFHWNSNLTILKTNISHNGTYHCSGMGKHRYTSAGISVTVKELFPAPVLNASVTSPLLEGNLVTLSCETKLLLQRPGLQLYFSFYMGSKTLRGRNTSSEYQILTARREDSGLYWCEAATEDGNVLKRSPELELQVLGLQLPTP

B1: insulin-Fc fusion protein of SEQ ID NO: 49 (Fc fusion)
chain: FVNQHLCGSHLVQALYLVCGERGFFYTDPTQRGGGGGQRGIVEQCCTSICSLYQLENYCGGGGAGGGGDCPKCPAPEMLGGPSVFIFPPKPKDTLLIARTPEVTCVVVDLDPEDPEVQISWFVDGKQMQTAKTQPREEQFSGTYRVVSVLPIGHQDWLKGKQFTCKVNNKALPSPIERTISKARGQAHQPSVYVLPPSREELSKNTVSLTCLIKDFFPPDIDVEWQSNGQQEPESKYRTTPPQLDEDGSYFLYSKLSVDKSRWQRGDTFICAVMHEALHNHYTQESLSHSPG
With B1, the IC50 in assay [1] came to 4180 nM.

B2: insulin-Fc fusion protein of SEQ ID NO: 44 (Fc fusion)
chain: FVNQHLCGSHLVQALYLVCGERGFFYTDPTGGGPRRGIVEQCCTSICSLYQLENYCGGGGAGGGGDCPKCPAPEMLGGPSVFIFPPKPKDTLLIARTPEVTCVVVDLDPEDPEVQISWFVDGKQMQTAKTQPREEQFSGTYRVVSVLPIGHQDWLKGKQFTCKVNNKALPSPIERTISKARGQAHQPSVYVLPPSREELSKNTVSLTCLIKDFFPPDIDVEWQSNGQQEPESKYRTTPPQLDEDGSYFLYSKLSVDKSRWQRGDTFICAVMHEALHNHYTQESLSHSPG
As to B2, in assay [2], the IC50 was determined as 2620 nM.

B3: insulin-Fc fusion protein of SEQ ID NO: 47 (Fc fusion)
chain: B2 chain with Q13E, Y16A, F25Y
The molecule B3 had a half-inhibitory concentration (IC50) in assay [2] of 2400 nM.

B4: insulin-Fc fusion protein of SEQ ID NO: 52 (Fc fusion)
chain: B2 chain with Q13E, Y16A, D28P, P29G, T30G, P34G, R35G, R36G
For B4, the IC50 in assay [1] came to 4720 nM; in assay [3], 1930 nM.

B5: insulin-Fc fusion protein of SEQ ID NO: 54 (Fc fusion)
chain: B2 chain with Q13E, Y16A, D28Q, P29G, T30G, P34G, R35G, R36G
For the molecule B5, the IC50 in assay [3] came to 2200 nM.

B6: insulin-Fc fusion protein of SEQ ID NO: 45 (Fc fusion)
chain: B2 chain with H10E, Q13E, Y16A
In the case of B6, in assay [2], the IC50 turned out to be 633 nM.

B7: insulin-Fc fusion protein of SEQ ID NO: 56 (Fc fusion)
chain: FVNQHLCGSHLVEALELVCGERGFHYGGGGGGSGGGGGIVEQCCTSTCSLDQLENYCNHGGGGQGGGGQGGGGQGGGGGDCPKCPAPEMLGGPSVFIFPPKPKDTLLIARTPEVTCVVVDLDPEDPEVQISWFVDGKQMQTAKTQPREEQFNGTYRVVSVLPIGHQDWLKGKQFTCKVNNKALPSPIERTISKARGQAHQPSVYVLPPSREELSKNTVSLTCLIKDFFPPDIDVEWQSNGQQEPESKYRTTPPQLDEDGSYFLYSKLSVDKSRWQRGDTFICAVMHEALHNHYTQESLSHSPG
notes: Combined variant, canine IgGB Fc with native cNg
B7 showed an IC50 in assay [1] of 554 nM.

B8: insulin-Fc fusion protein of SEQ ID NO: 28 (Fc fusion)
chain: B7 chain with H59G
B8 came in with an IC50 in assay [1] of 1250 nM.

B9: insulin-Fc fusion protein of SEQ ID NO: 55 (Fc fusion)
chain: FVNQHLCGSHLVEALELVCGERGFFYTPKTGGSGGGGGIVEQCCTSTCSLDQLENYCGGGGGQGGGGQGGGGQGGGGGDCPKCPAPEMLGGPSVFIFPPKPKDTLLIARTPEVTCVVVDLDPEDPEVQISWFVDGKQMQTAKTQPREEQFNGTYRVVSVLPIGHQDWLKGKQFTCKVNNKALPSPIERTISKARGQAHQPSVYVLPPSREELSKNTVSLTCLIKDFFPPDIDVEWQSNGQQEPESKYRTTPPQLDEDGSYFLYSKLSVDKSRWQRGDTFICAVMHEALHNHYTQESLSHSPG
In turn, B9 registered an IC50 in assay [1] of 3870 nM.

B10: insulin-Fc fusion protein of SEQ ID NO: 62 (Fc fusion)
chain: B9 chain with F25H, T27G, P28G, K29G, T30G, N151S
notes: 71% homodimer
Regarding B10, the IC50 in assay [4] is 2300 nM. In assay [5], the OD450nm was 0.175, the “OD450nm minus assay background” value stood at 0.118 and the “ratio to SEQ ID NO: 36” value amounted to 0.32.

B11: insulin-Fc fusion protein of SEQ ID NO: 57 (Fc fusion)
chain: B9 chain with T27G, P28G, K29G, T30G
As to B11, the 50% inhibitory concentration (IC50) in assay [1] is 2040 nM.

B12: insulin-Fc fusion protein of SEQ ID NO: 61 (Fc fusion)
chain: B9 chain with F25H, T27G, P28G, K29G, T30G, D119A, N151S
notes: 73% homodimer
In turn, B12 showed an IC50 in assay [4] of 3090 nM. For the same molecule, in assay [5], the OD450nm came out at 0.166, the “OD450nm minus assay background” value is 0.109 and the “ratio to SEQ ID NO: 36” value was 0.29.

B13: insulin-Fc fusion protein of SEQ ID NO: 42 (Fc fusion)
chain: FVNQHLCGSDLVEALALVCGERGFFYTDPTGGGPRRGIVEQCCHSICSLYQLENYCNGGGGAGGGGDCPKCPAPEMLGGPSVFIFPPKPKDTLLIARTPEVTCVVVDLDPEDPEVQISWFVDGKQMQTAKTQPREEQFKGTYRVVSVLPIGHQDWLKGKQFTCKVNNKALPSPIERTISKARGQAHQPSVYVLPPSREELSKNTVSLTCLIKDFFPPDIDVEWQSNGQQEPESKYRTTPPQLDEDGSYFLYSKLSVDKSRWQRGDTFICAVMHEALHNHYTQESLSHSPG
notes: non-glycosylated
As for B13, in assay [6], the OD450nm was 0.126, the “OD450nm minus assay background” value is 0.063 and the “ratio to SEQ ID NO: 36” value was 0.2.

B14: insulin-Fc fusion protein of SEQ ID NO: 51 (Fc fusion)
chain: FVNQHLCGSHLVEALALVCGERGFFYTDPGGGGGGGGGIVEQCCTSICSLYQLENYCGGGGAGGGGDCPKCPAPEMLGGPSVFIFPPKPKDTLLIARTPEVTCVVVDLDPEDPEVQISWFVDGKQMQTAKTQPREEQFSGTYRVVSVLPIGHQDWLKGKQFTCKVNNKALPSPIERTISKARGQAHQPSVYVLPPSREELSKNTVSLTCLIKDFFPPDIDVEWQSNGQQEPESKYRTTPPQLDEDGSYFLYSKLSVDKSRWQRGDTFICAVMHEALHNHYTQESLSHSPG
In assay [3], B14 gave a half-maximal inhibitory concentration (IC50) of 1920 nM.

B15: insulin-Fc fusion protein of SEQ ID NO: 50 (Fc fusion)
chain: FVNQHLCGSHLVEALALVCGERGFFYTDPTGGGGGGSGGGGGIVEQCCTSICSLYQLENYCGGGGAGGGGDCPKCPAPEMLGGPSVFIFPPKPKDTLLIARTPEVTCVVVDLDPEDPEVQISWFVDGKQMQTAKTQPREEQFSGTYRVVSVLPIGHQDWLKGKQFTCKVNNKALPSPIERTISKARGQAHQPSVYVLPPSREELSKNTVSLTCLIKDFFPPDIDVEWQSNGQQEPESKYRTTPPQLDEDGSYFLYSKLSVDKSRWQRGDTFICAVMHEALHNHYTQESLSHSPG
In turn, B15 registered a 50% inhibitory concentration (IC50) in assay [1] of 1610 nM.
